Data taken from PMC12859505.

Legend:
[1] = molecular target: HA- and RLuc8-tagged CXCR5 (HA-CXCR5-Rluc8) in ΔQ-GRK HEK293 cells (GRK2/3/5/6 deleted; not phosphorylated by GRKs) (UniProt P32302)
[2] = molecular target: HA- and RLuc8-tagged CXCR5 (HA-CXCR5-Rluc8), CXCL13-stimulated, in cells that express GRKs (GRK-phosphorylated) (UniProt P32302)

B1: CXCL13 (ligand)
chain: VLEVYYTSLRCRCVQESSVFIPRRFIDRIQILPRGNGCPRKEIIVWKKNKSIVCVDPQAEWIQRMMEVLRKRSSSTLPVPVFKRKIP
- potency (EC50) of CXCL13 (1-100 nM) for G protein activation by FLAG-CXCR5 in ΔQ-GRK HEK293 cells: loss of BRET between Gαi1-Rluc8 and Gβ3γ9-GFP2 (TRUEPATH), area under the curve [1]: 0.85 nM
- potency (EC50) of CXCL13 (1-100 nM) for G protein activation by FLAG-CXCR5 in WT HEK293 cells: loss of BRET between Gαi1-Rluc8 and Gβ3γ9-GFP2 (TRUEPATH), area under the curve [2]: 1 nM
